# Source: the supplement of paper PMC9170038
# Test system: MS2 coat protein
# Assay: apparent KD of MS2 coat protein; higher = weaker reporter binding
# Conditions: Eterna round: R107
# Method in brief: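 Titration buffer: 100 mM Tris-HCl pH 7.5, 80 mM KCl, 4 mM MgCl2, without or with constant ligand. Designed RNA switches transcribed on-chip from Illumina sequencing clusters received SNAP-549-labelled MS2 coat protein in twofold steps from 0.7 or 1.5 nM to 3 µM. Apparent KD is the median per design of fits to normalised cluster binding curves.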
# [1] = input ligand: theophylline 20 uM
# [2] = input ligand: theophylline 2 mM
# [3] = input ligand: tryptophan 2.4 mM
Sequence,apparent KD of MS2 coat protein (input ligand: arginine 13.2 mM),apparent KD of MS2 coat protein (input ligand: none),apparent KD of MS2 coat protein [1],apparent KD of MS2 coat protein [2],apparent KD of MS2 coat protein [3]
CGGGUUCGGGCGGCCGCCACUUUGAUUGGGUGUGACAUGAGGAUCACCCAUGUUGUGGGUGAUCGGAGGACCGGGUUUGGGCUUG [Fidorka],85.2 nM,65.6 nM,471 nM,744 nM,240 nM
CGGGUUGGACCAGGAAAUGGUCUGACGCGCCGAGGACCGGUACGGCCGCCACUCGCGGGUACAUGAGGAUCACCCAUGUCGGUGG [#1 Same State - Tryptophan A Attempt #12 (HarryS)],58.2 nM,50.4 nM,69.3 nM,61.7 nM,93 nM
CGGUUUGUGAUGGAUACCAGCAGUGUGGCUGUUUAUCCUGACAUGAGGAUCACCCAUGUGUGCCCUUGGCAGCUGUUGUGGGCUG [8.aC],64.1 nM,–,105 nM,–,77 nM
CGUAUCGUAACUGAUACCAGUGUACUGACAUGAGGAUCACCCAUGUUGGGUUUUGUUGUACACCCUUGGCAGCAGAAUCGAUACG [AstrosExyTheB#6],52.1 nM,–,68.6 nM,–,62.9 nM
CGUCAACAUGAGGAUCACCCAUGUUUCGAUACCAGUGACCCUCUCCACCCUUGGCAGCGAGCGCCCGCGCCUGAUAAAUCUUCUA [theeternabot_sameState_MS2_Theo_A_18],13.5 nM,–,16.4 nM,–,14.1 nM
CGUCGAAACUGAAGGAGCGAGAUGACAACAUUGGGUCUAACAUGAGGAUCACCCAUGUAAUCUCAGGUAGGUCGCGGUGACAACA [Exclusion Arginine B GF 17],40.1 nM,38.9 nM,48.5 nM,59.6 nM,51.7 nM
CGUUGGUGUGGAGACAUAUUGAUGACUGAAGGAGCGGGAAUAAACCCAGGUAGGUCGCAGAGAUCCACAUGAGGAUCACCCAUGU [!0.R],26.3 nM,73.1 nM,74.9 nM,154 nM,49.5 nM
CUAAUUAAAUCGGCCGCCACUUACUCAUGAGGUAACAACAUGAGGAUCACCCAUGUUUGAGGAUCAAGGACCGGGAUUUAAUUAG [AstrosSSTry#23],24.9 nM,–,33.7 nM,30.1 nM,–
CUACAUUUGUAGAAACCGGUCAACAUUAUUCGAGGACCGGUACGGCCGCCACUCGUAUAAUUUAAUACAUGAGGAUCACCCAUGU [Tryptophan A 5],16.1 nM,–,17.3 nM,16.9 nM,–
CUAUAAGUAACUGAUACCAGUGUACUGACAUGAGGAUCACCCAUGUUGGGUUUUGUUGUACACCCUUGGCAGCAGAAUCUUGUAG [AstrosExyTheB#15],46.5 nM,–,62.3 nM,–,54 nM
CUAUAGAUAAGAAGGAGCGUCGAAAAUGGGUAAACAUGAGGAUCACCCAUGUAAAGGGAACGACAGGUAGGUCGCUUAUUUAUAG [AstromonsSSArgB#6],124 nM,217 nM,206 nM,226 nM,145 nM
CUCAUCCACGCGGCCGCCACUAUAUUGUGGUGCGAAUGUGUCGUAAUACAUGAGGAUCACCCAUGUAGGACCGGGCGUGGAUGAG [#09 Exclusion Tryptophan B],10.3 nM,–,14.4 nM,13.5 nM,–
CUCAUCCACGCGGCCGCCACUAUAUUGUGGUGUGAAUGUGACGUAUUACAUGAGGAUCACCCAUGUAGGACCGGGCGUGGAUGAG [#07 Exclusion Tryptophan B],55.8 nM,–,86.2 nM,93.5 nM,–
CUCAUCCACGCGGCCGCCACUAUAUUGUGGUGUGAAUGUGUCGUAAUACAUGAGGAUCACCCAUGUAGGACCGGGCGUGGAUGAG [#08 Exclusion Tryptophan B],19.3 nM,–,30.9 nM,37.4 nM,–
